Data from ChEMBL document CHEMBL3861952, “Donepezil-like multifunctional agents: Design, synthesis, molecular modeling and biological evaluation” (Eur J Med Chem, 2016).

How the values were obtained:
[1] = substrate: C#CCN(Cc1ccc2cccc(O)c2n1)C(C#N)CCC1CCN(Cc2ccccc2)CC1; details: Homo sapiens; HEK293; 50 nM
Description: Inhibition of human recombinant AChE expressed in HEK293 cells using acetylthiocholine iodide as substrate assessed as enzyme Km at 50 nM preincubated for 30 mins followed by substrate addition measured after 30 mins by Lineweaver-Burk plot analysis

[2] = substrate: C#CCN(Cc1ccc2cccc(O)c2n1)C(C#N)CCC1CCN(Cc2ccccc2)CC1; details: Homo sapiens; HEK293; 20 nM
[3] = substrate: C#CCN(Cc1ccc2cccc(O)c2n1)C(C#N)CCC1CCN(Cc2ccccc2)CC1; details: Homo sapiens; HEK293; 100 nM
[4] = substrate: C#CCN(Cc1ccc2cccc(O)c2n1)C(C#N)CCC1CCN(Cc2ccccc2)CC1; details: Homo sapiens; HEK293; 100 nM; remark: listed apart in the source
[5] = substrate: C#CCN(Cc1ccc2cccc(O)c2n1)C(C#N)CCC1CCN(Cc2ccccc2)CC1; details: Homo sapiens; HEK293; 50 nM; remark: listed apart in the source
Description: Inhibition of human recombinant AChE expressed in HEK293 cells using acetylthiocholine iodide as substrate assessed as enzyme Vmax at 50 nM preincubated for 30 mins followed by substrate addition measured after 30 mins by Lineweaver-Burk plot analysis

[6] = substrate: C#CCN(Cc1ccc2cccc(O)c2n1)C(C#N)CCC1CCN(Cc2ccccc2)CC1; details: Homo sapiens; HEK293; 20 nM; remark: listed apart in the source
[7] = substrate: C#CCN(Cc1ccc2cccc(O)c2n1)C(C#N)CCC1CCN(Cc2ccccc2)CC1; details: Homo sapiens; HEK293; 200 nM
[8] = substrate: C#CCN(Cc1ccc2cccc(O)c2n1)C(C#N)CCC1CCN(Cc2ccccc2)CC1; details: Homo sapiens; HEK293; 200 nM; remark: listed apart in the source
[9] = substrate: C#CCN(Cc1ccc2cccc(O)c2n1)C(C#N)CCC1CCN(Cc2ccccc2)CC1; details: Homo sapiens; HEK293; 20 nM; remark: listed apart in the source
[10] = substrate: C#CCN(Cc1ccc2cccc(O)c2n1)C(C#N)CCC1CCN(Cc2ccccc2)CC1; details: Homo sapiens; HEK293; 100 nM; remark: listed apart in the source
[11] = substrate: C#CCN(Cc1ccc2cccc(O)c2n1)C(C#N)CCC1CCN(Cc2ccccc2)CC1; details: Homo sapiens; HEK293; 200 nM; remark: listed apart in the source
[12] = substrate: C#CCN(Cc1ccc2cccc(O)c2n1)C(C#N)CCC1CCN(Cc2ccccc2)CC1; details: Homo sapiens; HEK293; 20 nM; remark: listed apart in the source
[13] = substrate: C#CCN(Cc1ccc2cccc(O)c2n1)C(C#N)CCC1CCN(Cc2ccccc2)CC1; details: Homo sapiens; HEK293; 200 nM; remark: listed apart in the source
[14] = substrate: C#CCN(Cc1ccc2cccc(O)c2n1)C(C#N)CCC1CCN(Cc2ccccc2)CC1; details: Homo sapiens; HEK293; 100 nM; remark: listed apart in the source
[15] = substrate: C#CCN(Cc1ccc2cccc(O)c2n1)C(C#N)CCC1CCN(Cc2ccccc2)CC1; details: Homo sapiens; HEK293; 50 nM; remark: listed apart in the source
Description: Inhibition of human recombinant BuChE expressed in HEK293 cells using S-butyrylthiocholine iodide as substrate assessed as enzyme Vmax at 50 nM preincubated for 30 mins followed by substrate addition measured after 30 mins by Lineweaver-Burk plot analysis

[16] = substrate: C#CCN(Cc1ccc2cccc(O)c2n1)C(C#N)CCC1CCN(Cc2ccccc2)CC1; details: Homo sapiens; HEK293; 50 nM; remark: listed apart in the source
Description: Inhibition of human recombinant BuChE expressed in HEK293 cells using S-butyrylthiocholine iodide as substrate assessed as enzyme Km at 50 nM preincubated for 30 mins followed by substrate addition measured after 30 mins by Ellman's method

Row | Protein | Km [1] | Vmax [2] | Vmax [3] | Km [4] | Vmax [5] | Km [6] | Vmax [7] | Km [8] | Km [9] | Km [10] | Vmax [11] | Vmax [12] | Km [13] | Vmax [14] | Vmax [15] | Km [16]
1 | Acetylcholinesterase (Homo sapiens), P22303 (protein) MRPPQCLLHTPSLASPLLLLLLWLLGGGVGAEGREDAELLVTVRGGRLRGIRLKTPGGPVSAFLGIPFAEPPMGPRRFLPPEPKQPWSGVVDATTFQSVCYQYVDTLYPGFEGTEMWNPNRELSEDCLYLNVWTPYPRPTSPTPVLVWIYGGGFYSGASSLDVYDGRFLVQAERTVLVSMNYRVGAFGFLALPGSREAPGNVGLLDQRLALQWVQENVAAFGGDPTSVTLFGESAGAASVGMHLLSPPSRGLFHRAVLQSGAPNGPWATVGMGEARRRATQLAHLVGCPPGGTGGNDTELVACLRTRPAQVLVNHEWHVLPQESVFRFSFVPVVDGDFLSDTPEALINAGDFHGLQVLVGVVKDEGSYFLVYGAPGFSKDNESLISRAEFLAGVRVGVPQVSDLAAEAVVLHYTDWLHPEDPARLREALSDVVGDHNVVCPVAQLAGRLAAQGARVYAYVFEHRASTLSWPLWMGVPHGYEIEFIFGIPLDPSRNYTAEEKIFAQRLMRYWANFARTGDPNEPRDPKAPQWPPYTAGAQQYVSLDLRPLEVRRGLRAQACAFWNRFLPKLLSATDTLDEAERQWKAEFHRWSSYMVHWKNQFDHYSKQDRCSDL | 622 µM | 17.7 mAU/min | 10.2 mAU/min | 955 µM | 13 mAU/min | 368 µM | 7.3 mAU/min | 936 µM | – | – | – | – | – | – | – | –
2 | Cholinesterase (Homo sapiens), P06276 (protein) MHSKVTIICIRFLFWFLLLCMLIGKSHTEDDIIIATKNGKVRGMNLTVFGGTVTAFLGIPYAQPPLGRLRFKKPQSLTKWSDIWNATKYANSCCQNIDQSFPGFHGSEMWNPNTDLSEDCLYLNVWIPAPKPKNATVLIWIYGGGFQTGTSSLHVYDGKFLARVERVIVVSMNYRVGALGFLALPGNPEAPGNMGLFDQQLALQWVQKNIAAFGGNPKSVTLFGESAGAASVSLHLLSPGSHSLFTRAILQSGSFNAPWAVTSLYEARNRTLNLAKLTGCSRENETEIIKCLRNKDPQEILLNEAFVVPYGTPLSVNFGPTVDGDFLTDMPDILLELGQFKKTQILVGVNKDEGTAFLVYGAPGFSKDNNSIITRKEFQEGLKIFFPGVSEFGKESILFHYTDWVDDQRPENYREALGDVVGDYNFICPALEFTKKFSEWGNNAFFYYFEHRSSKLPWPEWMGVMHGYEIEFVFGLPLERRDNYTKAEEILSRSIVKRWANFAKYGNPNETQNNSTSWPVFKSTEQKYLTLNTESTRIMTKLRAQQCRFWTSFFPKVLEMTGNIDEAEWEWKAGFHRWNNYMMDWKNQFNDYTSKKESCVGL | – | – | – | – | – | – | – | – | 249 µM | 456 µM | 83 mAU/min | 108 mAU/min | 1240 µM | 87 mAU/min | 101 mAU/min | 289 µM
